Reference: the supplement of paper PMC10724198
± gives the standard deviation of the averaged measurements.

System: Saccharomyces cerevisiae
Assay: protein stability index of tFT-peptide fusion (C-terminal peptide) (PSI (0-1 scale)); higher = more stable (slower turnover)
Conditions: genetic background: wild type; temperature: 30 C
Method: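 Multiplexed protein stability (MPS) profiling in S. cerevisiae. Random 12-aa peptides (tFT-X12 library) are fused to the C-terminus of a sfGFP-mCherry tandem fluorescent timer, after mCherry and a GGGS linker. Cells are FACS-sorted into 8 mCherry/sfGFP bins and deep-sequenced. The protein stability index (PSI) is the read-weighted bin average, scaled from 0 (unstable) to 1 (stable). Only peptides with >10 reads are reported; cells were grown at 30 °C in SC-His with glucose.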
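Note: PSI is a weighted mean of sequencing reads over stability bins, variants kept only with over 10 reads, mCherry proximal and sfGFP distal, peptide attached via GGGS linker.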

| Sequence | protein stability index |
| --- | --- |
| GDRSKECAMKNG | 0.67 ± 0.013 |
| GDVLLLGGAGER | 0.671 ± 0.07 |
| GDVPHRIEGEFL | 0.788 ± 0.038 |
| GDYITIGGGLIW | 0.759 ± 0.017 |
| GEAEGGEEYGEG | 0.636 ± 0.017 |
| GEARVGGRWWSK | 0.7722 ± 0.0071 |
| GECASVFSSGFF | 0.72 ± 0.17 |
| GEDRLSPVGWDR | 0.702 ± 0.035 |
| GEGNRVPNPSRP | 0.669 ± 0.022 |
| GEGRGRTETEMK | 0.682 ± 0.033 |
| GEGTQGVSIGPR | 0.711 ± 0.015 |
| GEIGVRGYQAEE | 0.739 ± 0.029 |
| GEKEARRKKVSM | 0.749 ± 0.071 |
| GEKKTNHEPGAS | 0.759 ± 0.06 |
| GELLLVAGMHWL | 0.681 ± 0.023 |
| GERHTGTLRRPD | 0.701 ± 0.065 |
| GERLGECGGGVG | 0.6652 ± 0.0021 |
| GESAWWRSFGDV | 0.791 ± 0.11 |
| GESRVGMRRGGR | 0.667 ± 0.029 |
| GETGRGRRPRSQ | 0.667 ± 0.062 |
| GEVGTVEGGATG | 0.69596 ± 7e-05 |
| GEVMLRYQRISF | 0.713 ± 0.018 |
| GFEWWCQSVSVG | 0.688 ± 0.018 |
| GFGWYVPESWSS | 0.616 ± 0.043 |
| GFIDGSTVRTCL | 0.64 ± 0.054 |

| Sequence | protein stability index |
| --- | --- |
| GFISVGVYPVVR | 0.677 ± 0.0081 |
| GFLGVDLVYVVH | 0.567 ± 0.033 |
| GFTHAPTVPSPE | 0.745 ± 0.017 |
| GFTLCPVSLGYF | 0.688 ± 0.017 |
| GGAGGTGVRCGT | 0.669 ± 0.017 |
| GGAPRSSGRAGE | 0.691 ± 0.028 |
| GGAVAVRGGSAA | 0.636 ± 0.035 |
| GGCCLWVGFLGG | 0.7016 ± 0.0021 |
| GGCEWWAWGRGG | 0.727 ± 0.032 |
| GGCIGAKSVGGG | 0.652 ± 0.027 |
| GGCRRGVQLFWD | 0.7236 ± 0.0023 |
| GGCVGVLGGGGF | 0.659 ± 0.016 |
| GGDRGHVTGEVG | 0.657 ± 0.06 |
| GGEKEREEEDKE | 0.625 ± 0.056 |
| GGFGGAWRGWAP | 0.692 ± 0.016 |
| GGFLATAGLSVT | 0.673 ± 0.056 |
| GGFNARVSPTRL | 0.709 ± 0.1 |
| GGFRSVCGGVNW | 0.665 ± 0.011 |
| GGGAGRGSRVWG | 0.746 ± 0.076 |
| GGGAIFDRLLCL | 0.6545 ± 0.0049 |
| GGGARWGWGGRM | 0.648 ± 0.033 |
| GGGCARRRGGRV | 0.6958 ± 0.0049 |
| GGGDFDTLWDSR | 0.789 ± 0.03 |
| GGGDRRRTARLS | 0.578 ± 0.027 |
| GGGEGRGGVEYG | 0.64 ± 0.037 |

| Sequence | protein stability index |
| --- | --- |
| GGGERLDDIVGG | 0.801 ± 0.081 |
| GGGEVLFHLRRA | 0.673 ± 0.019 |
| GGGEYHTIMRTT | 0.786 ± 0.2 |
| GGGGCDVGGCVG | 0.675 ± 0.039 |
| GGGGGEAGVIGR | 0.892 ± 0.15 |
| GGGGGGACRPVG | 0.659 ± 0.094 |
| GGGGGGAEGAGW | 0.711 ± 0.02 |
| GGGGGGGCGGDR | 0.654 ± 0.08 |
| GGGGGGGGGGGV | 0.709 ± 0.053 |
| GGGGGGGGRGWG | 0.63411 ± 1.7e-05 |
| GGGGGGGVAGGV | 0.715 ± 0.041 |
| GGGGGGIGVGMG | 0.705 ± 0.024 |
| GGGGGGKEAVVR | 0.649 ± 0.053 |
| GGGGGMEPGCGP | 0.682 ± 0.043 |
| GGGGGREPGCGP | 0.707 ± 0.01 |
| GGGGGVGGVGRV | 0.668 ± 0.062 |
| GGGGGVGVEGEP | 0.723 ± 0.067 |
| GGGGGWVRWASG | 0.689 ± 0.064 |
| GGGGLGRGKGCW | 0.706 ± 0.03 |
| GGGGMASRGGNK | 0.685 ± 0.027 |
| GGGGMGGCSDDG | 0.742 ± 0.17 |
| GGGGRAALRWYG | 0.651 ± 0.014 |
| GGGGSGRRIGCR | 0.696 ± 0.035 |
| GGGGSRGRVGDI | 0.7182 ± 0.0022 |
| GGGLLMVAASRC | 0.634 ± 0.014 |

| Sequence | protein stability index |
| --- | --- |
| GGGRAAIVRGGW | 0.682 ± 0.014 |
| GGGRAEPLEPGV | 0.648 ± 0.07 |
| GGGRGGAAEGAV | 0.781 ± 0.07 |
| GGGRRWPGGSGG | 0.775 ± 0.075 |
| GGGRVSAGGDSG | 0.751 ± 0.071 |
| GGGVGLGGYGEG | 0.636 ± 0.055 |
| GGGVGMLRRSGG | 0.689 ± 0.054 |
| GGGVSFWVGVVA | 0.656 ± 0.042 |
| GGGWDWWFGVPG | 0.792 ± 0.13 |
| GGGWGGEAVRVW | 0.65 ± 0.055 |
| GGGWGRVALGQG | 0.612 ± 0.015 |
| GGHRRQGKKFTP | 0.711 ± 0.067 |
| GGKARKRKDKRA | 0.645 ± 0.1 |
| GGKNVKCLDRGL | 0.693 ± 0.014 |
| GGLNIGIGYSVG | 0.643 ± 0.1 |
| GGLRWVLGAQAV | 0.707 ± 0.063 |
| GGLVGSSVWGWG | 0.703 ± 0.04 |
| GGLVVRCGVTSS | 0.695 ± 0.15 |
| GGNKETKITRIE | 0.698 ± 0.011 |
| GGPLDASICRSS | 0.694 ± 0.061 |
| GGPPPHHKTRPG | 0.603 ± 0.063 |
| GGPRDNEGSWWV | 0.7122 ± 0.0029 |
| GGQGRYSAPPSR | 0.624 ± 0.02 |
| GGREDGKRGRQK | 0.684 ± 0.055 |
| GGRGFRGVLRSN | 0.696 ± 0.069 |

| Sequence | protein stability index |
| --- | --- |
| GGRGGEGLVREG | 0.667 ± 0.019 |
| GGRGRGMGGIFG | 0.667 ± 0.053 |
| GGRGRRAGGSSG | 0.745 ± 0.016 |
| GGRGRRRGGVGG | 0.701 ± 0.011 |
| GGRGRRWAGPRC | 0.702 ± 0.039 |
| GGRGVVVGQGAG | 0.705 ± 0.027 |
| GGRGWAGRGGSG | 0.707 ± 0.052 |
| GGRPRGLVAGAA | 0.657 ± 0.022 |
| GGRTEYILQLKK | 0.686 ± 0.021 |
| GGRVARRGAERG | 0.654 ± 0.14 |
| GGRVGGSMGVGG | 0.659 ± 0.028 |
| GGRWMWWAGAAG | 0.79 ± 0.3 |
| GGSSWSLGGGCG | 0.713 ± 0.023 |
| GGTGRRRVGRRG | 0.696 ± 0.018 |
| GGTVAGLYILGF | 0.6301 ± 0.001 |
| GGVAADGGGGRG | 0.675 ± 0.043 |
| GGVAAVGGPWGN | 0.75 ± 0.052 |
| GGVASGGCFWGR | 0.6761 ± 0.0053 |
| GGVECVRGTGGR | 0.659 ± 0.046 |
| GGVGLVGEVCPI | 0.688 ± 0.028 |
| GGVGRGADASLA | 0.622 ± 0.017 |
| GGVPGEGTGGRE | 0.644 ± 0.027 |
| GGVRVPRVDVVG | 0.618 ± 0.042 |
| GGWAGGRQGCGG | 0.77 ± 0.012 |
| GGWAHGEGAGDC | 0.614 ± 0.028 |

| Sequence | protein stability index |
| --- | --- |
| GGWFLLTRLGNW | 0.684 ± 0.035 |
| GGWGWGERRSRE | 0.658 ± 0.06 |
| GGWHVVGGEGVG | 0.524 ± 0.0082 |
| GGWSHMHLGLDG | 0.665 ± 0.024 |
| GGYDFRCPCCGV | 0.723 ± 0.025 |
| GHGFPSLPLILS | 0.57 ± 0.076 |
| GHGLLYLIDLCS | 0.638 ± 0.074 |
| GHLCVPWFGLVL | 0.659 ± 0.11 |
| GHRTIPHSNCLS | 0.65 ± 0.0099 |
| GHSLARHRHRGS | 0.701 ± 0.0095 |
| GHSNRDCFGIKC | 0.621 ± 0.024 |
| GHWRQCSVAEGA | 0.643 ± 0.0024 |
| GHYLLCPQGQSD | 0.6675 ± 0.0024 |
| GIARRSHSNETV | 0.766 ± 0.078 |
| GIEAKPLEGKTQ | 0.7026 ± 0.0018 |
| GIGLYMWRNSKW | 0.796 ± 0.04 |
| GIGRGLGGLKSG | 0.617 ± 0.026 |
| GIGRRIGSELSF | 0.668 ± 0.047 |
| GIHFKIHKSSSN | 0.647 ± 0.013 |
| GIKTRTTRVRGE | 0.706 ± 0.018 |
| GILPDSCRSNTG | 0.623 ± 0.081 |
| GILVALGSPLLV | 0.592 ± 0.048 |
| GINRLRNKEKEE | 0.775 ± 0.073 |
| GISGRPDGGRGG | 0.658 ± 0.0071 |
| GKEEGRETGREG | 0.741 ± 0.038 |

| Sequence | protein stability index |
| --- | --- |
| GKFKKRIRRGIK | 0.695 ± 0.011 |
| GKGDEPKAPTDR | 0.65 ± 0.028 |
| GKGTRGTRRGGK | 0.632 ± 0.024 |
| GKIKKTTDKILI | 0.639 ± 0.11 |
| GKILSNNQIFKR | 0.702 ± 0.057 |
| GKKNNENKYDMR | 0.7304 ± 0.0051 |
| GKKRANQSRSLP | 0.76 ± 0.19 |
| GKLHKNTDEIET | 0.762 ± 0.062 |
| GKLKVKIYESSK | 0.658 ± 0.061 |
| GKLRGTGGRAGE | 0.669 ± 0.012 |
| GKLWTIIFPLFF | 0.503 ± 0.035 |
| GKPFAWVAVVGD | 0.729 ± 0.051 |
| GKREGRGRKRGG | 0.807 ± 0.092 |
| GKRYLIKKRKKT | 0.698 ± 0.021 |
| GKSESATLMVTV | 0.697 ± 0.18 |
| GKSGGAVRGCGG | 0.657 ± 0.044 |
| GKSGVTGAGEKR | 0.681 ± 0.06 |
| GKSLLPATYDYY | 0.677 ± 0.04 |
| GKTITNENPKGH | 0.705 ± 0.021 |
| GKVSVSGRELGG | 0.65 ± 0.033 |
| GLARPLYALYRR | 0.618 ± 0.081 |
| GLASLTVGAASV | 0.671 ± 0.011 |
| GLATISARYFCL | 0.647 ± 0.064 |
| GLCCFWSYRASR | 0.687 ± 0.035 |
| GLCHFVRLSCFC | 0.5186 ± 0.0024 |

| Sequence | protein stability index |
| --- | --- |
| GLCRGHMSTMVD | 0.641 ± 0.064 |
| GLCVLVASCGRG | 0.664 ± 0.15 |
| GLDEVKVVSKKK | 0.689 ± 0.051 |
| GLDHRLALLYPS | 0.736 ± 0.036 |
| GLFCGLGVGTCG | 0.621 ± 0.059 |
| GLGEDVGLGLGW | 0.669 ± 0.051 |
| GLGGNVLRVIFA | 0.561 ± 0.021 |
| GLGLASWGDLEL | 0.739 ± 0.039 |
| GLGLHKDGSTGG | 0.6093 ± 0.003 |
| GLGMWSVRCAGW | 0.649 ± 0.0067 |
| GLHVPLTGFCFC | 0.63 ± 0.02 |
| GLIRGFLRYPGM | 0.691 ± 0.033 |
| GLKWTGLEWHFL | 0.693 ± 0.041 |
| GLLRSHYLDRGF | 0.693 ± 0.047 |
| GLPRFFKNPPVV | 0.6445 ± 0.0043 |
| GLPWRGVGGGSG | 0.719 ± 0.038 |
| GLQPVGLYPFQL | 0.668 ± 0.008 |
| GLRFVPLPLRPV | 0.73 ± 0.029 |
| GLRLFAPRWPQA | 0.713 ± 0.058 |
| GLRLHVQCFGRV | 0.699 ± 0.024 |
| GLSGSPIPFIRL | 0.731 ± 0.021 |
